According to article PMC9399999 (2022):

Target: prototypic SARS-CoV-2 RBD (residues 319-541) (SARS-CoV-2 (prototype), UniProt P0DTC2 319-541)
Assay: SPR

B1: S304 antibody (IgG1) (antibody, V domains shown)
VH: EVQLVESGGGLVQPGGSLRLSCAASGFTFSSYDMHWVRQTTGKGLEWVSTIGTAGDTYYPDSVKGRFTISREDAKNSLYLQMNSLRAGDTAVYYCARGDSSGYYYYFDYWGQGTLLTVSS
VL: DIQMTQSPSSLSAAVGDRVTITCRASQSIGSYLNWYQQKPGKAPKLLIYAASSLQSGVPSRFSGSGSGTDFTLTISSLQPEDFAIYYCQQSYVSPTYTFGPGTKVDIK
koff: 0.00664 s⁻¹
